Test results from US20240076412A1 (NATIONAL INSTITUTE OF BIOLOGICAL SCIENCES BEIJING, published 2024).

T1: mFcγRI
T1 construct: Named singly only on the sheet; the text speaks of mFcγRs as a group; also called mouse Fcγ receptor I; one of the mFcγRs
T1 chain: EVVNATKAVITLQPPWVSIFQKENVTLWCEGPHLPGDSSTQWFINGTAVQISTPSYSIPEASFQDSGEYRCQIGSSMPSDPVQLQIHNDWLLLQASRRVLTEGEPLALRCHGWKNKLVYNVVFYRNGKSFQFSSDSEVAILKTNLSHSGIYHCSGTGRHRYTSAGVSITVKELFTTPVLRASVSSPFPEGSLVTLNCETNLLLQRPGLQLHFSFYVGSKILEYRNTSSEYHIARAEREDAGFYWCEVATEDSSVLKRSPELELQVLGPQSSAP


Columns and labels:
mFcγRI = molecular target: T1, mFcγRI; test: SPR (Biacore T200), antibody captured on the chip, serially diluted mFcγRI as analyte; concentrations not given
[1] = molecular target: hCD47 protein (SPR analyte of Example 2) (human, UniProt Q08722 19-139, limits assumed); test: SPR, antibody captured by anti-human Fc antibodies on CM5 chip, hGPC3 injected first, then hCD47
hCD47 protein (SPR analyte of Example 2), sequence (Q08722 19-139 limits assumed): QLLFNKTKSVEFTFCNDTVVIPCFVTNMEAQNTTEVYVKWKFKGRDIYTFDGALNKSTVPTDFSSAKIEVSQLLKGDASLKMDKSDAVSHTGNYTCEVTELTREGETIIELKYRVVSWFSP

hGPC3-ΔHS = molecular target: T2, hGPC3-ΔHS (human, UniProt P51654 25-559, limits assumed); test: SPR (Biacore T200), IgG1 captured on protein A/G CM5 chip, antigen printed as human GPC3 (hGPC3-ΔHS by paragraph 180) as analyte
T2 construct: also called hGPC3-ΔHS protein
Experimental: All SPR analyses were performed on a Biacore T200 instrument (Biacore, GE Healthcare). […] The association rates (Kₒₙ), dissociation rates (Koff), and affinity constants (KD) were calculated using BiacoreT200 evaluation software.

binding result (mFcγRI) | binding result [1] | Kd (hGPC3-ΔHS) [nM] | koff (hGPC3-ΔHS) [s⁻¹] | kon (hGPC3-ΔHS) [M⁻¹ s⁻¹] | Binder
no binding |  |  |  |  | GPC3/CD47-DANG (bispecific antibody, also called GPC3/CD47 biAb Fc variant; GPC3/CD47-DANG variant) heavy 1: QVQLVQSGAEVKKPGASVKVSCKASGYTFTDYEMHWVRQAPGQGLEWMGALDPKTGDTAYSQKFKGRVTLTADESTSTAYMELSSLRSEDTAVYYCTRFYSYTYWGQGTLVTVSSASTKGPSVFPLAPSSKSTSGGTAALGCLVKDYFPEPVTVSWNSGALTSGVHTFPAVLQSSGLYSLSSVVTVPSSSLGTQTYICNVNHKPSNTKVDKKAEPKSCDKTHTCPPCPAPELLGGPSVFLFPPKPKDTLMISRTPEVTCVVVAVSHEDPEVKFNWYVDGVEVHNAKTKPREEQYGSTYRVVSVLTVLHQDWLNGKEYKCKVSNKALPAPIEKTISKAKGQPREPQVYTLPPCRDELTKNQVSLWCLVKGFYPSDIAVEWESNGQPENNYKTTPPVLDSDGSFFLYSKLTVDKSRWQQGNVFSCSVMHEALHNHYTQKSLSLSPGK light 1: DVVMTQSPLSLPVTPGEPASISCRSSQSLVHSNANTYLHWYLQKPGQSPQLLIYKVSNRFSGVPDRFSGSGSGTDFTLKISRVEAEDVGVYYCSQNTHVPPTFGQGTKLEIKRTVAAPSVFIFPPSDEQLKSGTASVVCLLNNFYPREAKVQWKVDNALQSGNSQESVTEQDSKDSTYSLSSTLTLSKADYEKHKVYACEVTHQGLSSPVTKSFNRGEC heavy 2: QVQLQESGPGLVKPSETLSLTCTVSGDSINYHYWSWIRQPPGKGLEWIGYIYYSGSTTYNPSLKSRVTMSVDPSKNHFSLKLTSVTAADTALYFCARQRGAYDYWGQGTLVTVSSASVAAPSVFIFPPSDEQLKSGTASVVCLLNNFYPREAKVQWKVDNALQSGNSQESVTEQDSKDSTYSLSSTLTLSKADYEKHKVYACEVTHQGLSSPVTKSFNRGECDKTHTCPPCPAPELLGGPSVFLFPPKPKDTLMISRTPEVTCVVVAVSHEDPEVKFNWYVDGVEVHNAKTKPREEQYGSTYRVVSVLTVLHQDWLNGKEYKCKVSNKALPAPIEKTISKAKGQPREPQVCTLPPSRDELTKNQVSLSCAVKGFYPSDIAVEWESNGQPENNYKTTPPVLDSDGSFFLVSKLTVDKSRWQQGNVFSCSVMHEALHNHYTQKSLSLSPGK light 2: DIQLTQSPSSVSASVGDRVTIACRASQDIGSRLVWYQQRPGKAPKLLIYAASSLQSGVPSRFSGSGSGTDFTLTISSLQPEDFATYYCQQSYSTPYSFGQGTKLEIKSSASTKGPSVFPLAPSSKSTSGGTAALGCLVKDYFPEPVTVSWNSGALTSGVHTFPAVLQSSGLYSLSSVVTVPSSSLGTQTYICNVNHKPSNTKVDKKAEPKSC
 | no binding | 1.29 | 0.000275 | 213000 | GC33 (Codrituzumab), human IgG1 (antibody, V domains shown, also called anti-GPC3 mAb) VH: QVQLVQSGAEVKKPGASVKVSCKASGYTFTDYEMHWVRQAPGQGLEWMGALDPKTGDTAYSQKFKGRVTLTADESTSTAYMELSSLRSEDTAVYYCTRFYSYTYWGQGTLVTVSS VL: DVVMTQSPLSLPVTPGEPASISCRSSQSLVHSNANTYLHWYLQKPGQSPQLLIYKVSNRFSGVPDRFSGSGSGTDFTLKISRVEAEDVGVYYCSQNTHVPPTFGQGTKLEIK
